Assay results: patent US20230074436A1 (DENALI THERAPEUTICS, published 2023)
No end group written: not given here. *: point of attachment. Biotin = O=C1N[C@H]2[C@H](CS[C@H]2CCCCC(=O)*)N1

Key:
[1] = molecular target: T1, asyn_113-127_116A (human); assay: Ala-scan peptide ELISA, row A, run 2; note: test concentration or dose not given here
T1 construct: substitution is already in the entry; also called pep5
T1 peptide: Biotin-LEDAPVDPDNEAYEM

[2] = molecular target: T2, asyn_113-127_117A (human); assay: Ala-scan peptide ELISA, row A, run 2; note: test concentration or dose not given here
T2 construct: substitution is already in the entry; also called pep6
T2 peptide: Biotin-LEDMAVDPDNEAYEM

[3] = molecular target: T3, asyn_113-127_118A (human); assay: Ala-scan peptide ELISA, row A, run 2; note: test concentration or dose not given here
T3 construct: substitution is already in the entry; also called pep7
T3 peptide: Biotin-LEDMPADPDNEAYEM

[4] = molecular target: T4, asyn_113-127_120A (human); assay: Ala-scan peptide ELISA, row A, run 2; note: test concentration or dose not given here
T4 construct: substitution is already in the entry; also called pep9
T4 peptide: Biotin-LEDMPVDADNEAYEM

[5] = molecular target: T5, asyn_113-127_121A (human); assay: Ala-scan peptide ELISA, row A, run 2; note: test concentration or dose not given here
T5 construct: substitution is already in the entry; also called pep10
T5 peptide: Biotin-LEDMPVDPANEAYEM

[6] = molecular target: T6, asyn_113-127_124G (human); assay: Ala-scan peptide ELISA, row A, run 2; note: test concentration or dose not given here
T6 construct: substitution is already in the entry; also called pep13
T6 peptide: Biotin-LEDMPVDPDNEGYEM

[7] = molecular target: T7, asyn_113-127_125A (human); assay: Ala-scan peptide ELISA, row A, run 2
T7 construct: substitution is already in the entry; also called pep15
T7 peptide: Biotin-LEDMPVDPDNEAAEM
Method: (§1) 96-well Nunc plates were coated with 50 μL per well of 1 μg/mL streptavidin (from Jackson Immuno Research Laboratory) in PBS at 4° C. overnight. The plates were washed three times with PBST, and blocked with PBS containing 3% BSA at room temperature for 1 hour. The N-terminal biotinylated peptides were dissolved in Milli Q water to a concentration of 2 mg/mL, then further diluted to a concentration of 2 μg/mL with PBS. 50 μl of the diluted peptide was applied to the streptavidin-coated plates and incubated at 4° C. overnight. 2 μg/mL of biotinylated human alpha-synuclein was used as the positive control. The plates were washed three times with PBST before use. Purified antibody was diluted by serial dilution methods, from 20 μg/mL to 1 ng/mL, and 50 μL of the antibody solution was added to the peptide-coated wells. The plates were incubated for 1 hour at room temperature, then washed three times with PBST. Secondary detection antibody (goat anti-rat HRP (obtained from Southern Biotech)) was added with 1:5,000 dilutions and incubated for 1 hour at room temperature, then washed three times with PBST. Plates were developed with 50 μL/well of TMB substrate (Thermo Fisher) and quenched with 50 μL/well of 1 N sulfuric acid. The signal was quantified on a BioTek® plate reader at A450. A parallel repeat was performed for each peptide in a separate plate.

[8] = molecular target: T8, asyn_113-127_127A (human); assay: Ala-scan peptide ELISA, row A, run 2
T8 construct: substitution is already in the entry; also called pep17
T8 peptide: Biotin-LEDMPVDPDNEAYEA
Method: as §1

[9] = molecular target: T9, asyn_113-127 (human); assay: Ala-scan peptide ELISA, row E, run 2
T9 construct: also called pep1
T9 peptide: Biotin-LEDMPVDPDNEAYEM
Method: as §1

[10] = molecular target: T10, asyn_113-127_113A (human); assay: Ala-scan peptide ELISA, row E, run 2
T10 construct: substitution is already in the entry; also called pep2
T10 peptide: Biotin-AEDMPVDPDNEAYEM
Method: as §1

[11] = molecular target: T11, asyn_113-127_114A (human); assay: Ala-scan peptide ELISA, row E, run 2
T11 construct: substitution is already in the entry; also called pep3
T11 peptide: Biotin-LADMPVDPDNEAYEM
Method: as §1

[12] = molecular target: T12, asyn_113-127_115A (human); assay: Ala-scan peptide ELISA, row E, run 2
T12 construct: substitution is already in the entry; also called pep4
T12 peptide: Biotin-LEAMPVDPDNEAYEM
Method: as §1

[13] = molecular target: T1, asyn_113-127_116A; assay: Ala-scan peptide ELISA, row E, run 2
Method: as §1

[14] = molecular target: T2, asyn_113-127_117A; assay: Ala-scan peptide ELISA, row E, run 2
Method: as §1

[15] = molecular target: T3, asyn_113-127_118A; assay: Ala-scan peptide ELISA, row E, run 2
Method: as §1

[16] = molecular target: T13, asyn_113-127_119A (human); assay: Ala-scan peptide ELISA, row E, run 2
T13 construct: substitution is already in the entry; also called pep8
T13 peptide: Biotin-LEDMPVAPDNEAYEM
Method: as §1

[17] = molecular target: T4, asyn_113-127_120A; assay: Ala-scan peptide ELISA, row E, run 2
Method: as §1

[18] = molecular target: T5, asyn_113-127_121A; assay: Ala-scan peptide ELISA, row E, run 2
Method: as §1

[19] = molecular target: T14, asyn_113-127_122A (human); assay: Ala-scan peptide ELISA, row E, run 2
T14 construct: substitution is already in the entry; also called pep11
T14 peptide: Biotin-LEDMPVDPDAEAYEM
Method: as §1

[20] = molecular target: T15, asyn_113-127_123A (human); assay: Ala-scan peptide ELISA, row E, run 2
T15 construct: substitution is already in the entry; also called pep12
T15 peptide: Biotin-LEDMPVDPDNAAYEM
Method: as §1

[21] = molecular target: T6, asyn_113-127_124G; assay: Ala-scan peptide ELISA, row E, run 2
Method: as §1

[22] = molecular target: T16, asyn_113-127_124P (human); assay: Ala-scan peptide ELISA, row E, run 2
T16 construct: substitution is already in the entry; also called pep14
T16 peptide: Biotin-LEDMPVDPDNEPYEM
Method: as §1

[23] = molecular target: T7, asyn_113-127_125A; assay: Ala-scan peptide ELISA, row E, run 2
Method: as §1

[24] = molecular target: T17, asyn_113-127_126A (human); assay: Ala-scan peptide ELISA, row E, run 2
T17 construct: substitution is already in the entry; also called pep16
T17 peptide: Biotin-LEDMPVDPDNEAYAM
Method: as §1

[25] = molecular target: T8, asyn_113-127_127A; assay: Ala-scan peptide ELISA, row E, run 2
Method: as §1

[26] = molecular target: biotinylated human alpha-synuclein (human, UniProt P37840 1-140); assay: Ala-scan peptide ELISA, row E, run 2
Method: as §1

[27] = molecular target: T9, asyn_113-127; assay: Ala-scan peptide ELISA, row G, run 1
Method: as §1

[28] = molecular target: T10, asyn_113-127_113A; assay: Ala-scan peptide ELISA, row G, run 1
Method: as §1

[29] = molecular target: T11, asyn_113-127_114A; assay: Ala-scan peptide ELISA, row G, run 1
Method: as §1

[30] = molecular target: T12, asyn_113-127_115A; assay: Ala-scan peptide ELISA, row G, run 1
Method: as §1

[31] = molecular target: T1, asyn_113-127_116A; assay: Ala-scan peptide ELISA, row G, run 1
Method: as §1

[32] = molecular target: T3, asyn_113-127_118A; assay: Ala-scan peptide ELISA, row G, run 1
Method: as §1

[33] = molecular target: T13, asyn_113-127_119A; assay: Ala-scan peptide ELISA, row G, run 1
Method: as §1

[34] = molecular target: T5, asyn_113-127_121A; assay: Ala-scan peptide ELISA, row G, run 1
Method: as §1

[35] = molecular target: T8, asyn_113-127_127A; assay: Ala-scan peptide ELISA, row G, run 1
Method: as §1

[36] = molecular target: human alpha-synuclein monomer (human, UniProt P37840 1-140); assay: SPR (Biacore), antibody captured, monomer injected, 1:1 fit
Method: Anti-mouse Fc antibody (obtained from GE Healthcare) was immobilized on the surface of a CM5 chip (obtained from GE Healthcare) through amine-coupling to reach about 6,000 to 8,000 response units (RU). The surface was activated by injection of a mixture of 1-ethyl-3-(3-dimethylaminopropyl)-carbodiimide (EDC) and N-hydroxysuccinimide (NETS), both obtained from GE Healthcare, for 7 minutes at room temperature. […] Both injections were done at room temperature.
Purified rat anti alpha-synuclein antibody (10 μg/mL) was injected at room temperature and captured to reach 1,000 to 2,000 RU. […] Sensorgrams were fitted using a 1:1 Langmuir model to estimate kₒₙ and koff.

B1: 20H4 (antibody, rat IgG2b, V domains shown)
VH: AVQLVESGGGLVQPKESLKISCAASGFTFSNAAMYWVRQAPGKGLELLARIRTKPNNYATYHADSVKGRFTISRDDSQSMVYLHMGNLKTEDTAMYYCTADMATGDYWGPGVMVTVSS
VL: DIQMTQSPPVLSVSVGDRVTLSCKASQNINKNLDWYQQKHGEAPKPLIYSTNNLQTGVPSRFSGSGSGTDYTLTISSLQPEDVATYYCYQYKSAWTFGGGTKLELR
notes: also called clone 20H4; rat 20H4
- A450 [1]: 0.418 OD
- A450 [2]: 0.462 OD
- A450 [3]: 0.441 OD
- A450 [4]: 0.314 OD
- A450 [5]: 0.391 OD
- A450 [6]: 0.396 OD
- A450 [7]: 0.078 OD
- A450 [8]: 0.504 OD
- A450 [9]: 0.242 OD
- A450 [10]: 0.237 OD
- A450 [11]: 0.243 OD
- A450 [12]: 0.145 OD
- A450 [13]: 0.247 OD
- A450 [14]: 0.267 OD
- A450 [15]: 0.256 OD
- A450 [16]: 0.045 OD
- A450 [17]: 0.15 OD
- A450 [18]: 0.223 OD
- A450 [19]: 0.05 OD
- A450 [20]: 0.259 OD
- A450 [21]: 0.215 OD
- A450 [22]: 0.047 OD
- A450 [23]: 0.049 OD
- A450 [24]: 0.272 OD
- A450 [25]: 0.279 OD
- A450 [26]: 0.531 OD
- A450 [27]: 0.089 OD
- A450 [28]: 0.095 OD
- A450 [29]: 0.083 OD
- A450 [30]: 0.058 OD
- A450 [31]: 0.098 OD
- A450 [32]: 0.107 OD
- A450 [33]: 0.048 OD
- A450 [34]: 0.091 OD
- A450 [35]: 0.094 OD
- Kd [36]: 3.01 nM
